Results: PMC2935386, “Dissecting the Relation between a Nuclear Receptor and GATA: Binding Affinity Studies of Thyroid Hormone Receptor and GATA2 on TSHβ Promoter”

B1: TSH GATA-RE (dsDNA)
DNA 1: TCAATAGATGCTTTTCAGATAAGAA
DNA 2: TTCTTATCTGAAAAGCATCTATTGA
B2: DR4 TRE (dsDNA)
DNA 1: AGTTCAGGTCACAGGAGGTCAGAG
DNA 2: CTCTGACCTCCTGTGACCTGAACT
B3: GATA-RE (canonical) (dsDNA)
DNA 1: CACTTGATAACAGAAAGTGATAACTCT
DNA 2: AGAGTTATCACTTTCTGTTATCAAGTG
B4: TSH NRE (dsDNA)
DNA 1: TGGGTCACCACAGCATCTGCTCACCAATGCAAAGT
DNA 2: ACTTTGCATTGGTGAGCAGATGCTGTGGTGACCCA

How the values were obtained:
[1] = target: GATA2-Zf;TRβ1 DBD-LBD (TR DL, TRβ1ΔAB) (;human, UniProt P23769;P10828 291-412;102-461, |); assay: fluorescence anisotropy; T3; Hill n 1±0.2; Fluorescence anisotropy: 10 nM DNA, 20 mM Hepes pH 8.0, 50 mM NaCl, 1 mM MgCl2, 3 mM DTT, 5% glycerol, 10°C; agarose gel 1.3% in 0.5x TBE; settings: protein: recombinant;recombinant; tags: His, thrombin treated;His (pET28a); copies: 1;1; label: 5' fluorescein (FITC) on forward strand; blunt
[2] = target: T1, TRβ1 DBD-LBD (TR DL, TRβ1ΔAB);RXRα1 DBD-LBD (RXR DL, RXRα1ΔAB) (human;, UniProt P10828;P19793 102-461;126-462, |); assay: fluorescence anisotropy; T3; Hill n 3.7±1; text refers to previous studies [36],[37] but listed in this paper's Table 1 and Fig. 2; Fluorescence anisotropy: 10 nM DNA, 20 mM Hepes pH 8.0, 50 mM NaCl, 1 mM MgCl2, 3 mM DTT, 5% glycerol, 10°C; agarose gel 1.3% in 0.5x TBE; settings: protein: recombinant;recombinant; tags: His (pET28a);His (pET28a); copies: 1;1; label: 5' fluorescein (FITC) on forward strand; blunt
[3] = target: T1, TRβ1 DBD-LBD (TR DL, TRβ1ΔAB);RXRα1 …; assay: fluorescence anisotropy; T3; Hill n 1.8±0.1; Fluorescence anisotropy: 10 nM DNA, 20 mM Hepes pH 8.0, 50 mM NaCl, 1 mM MgCl2, 3 mM DTT, 5% glycerol, 10°C; agarose gel 1.3% in 0.5x TBE; settings: protein: recombinant;recombinant; tags: His (pET28a);His (pET28a); copies: 1;1; label: 5' fluorescein (FITC) on forward strand; blunt

Sequence of GATA2-Zf;TRβ1 DBD-LBD (TR DL, TRβ1ΔAB) (P23769 291-412, stated change not applied, chain 1 of 2): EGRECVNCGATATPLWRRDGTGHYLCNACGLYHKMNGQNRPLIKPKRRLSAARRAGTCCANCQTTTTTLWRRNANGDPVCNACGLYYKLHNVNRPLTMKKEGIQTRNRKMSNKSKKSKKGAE
Sequence of GATA2-Zf;TRβ1 DBD-LBD (TR DL, TRβ1ΔAB) (P10828 102-461, stated change not applied, chain 2 of 2): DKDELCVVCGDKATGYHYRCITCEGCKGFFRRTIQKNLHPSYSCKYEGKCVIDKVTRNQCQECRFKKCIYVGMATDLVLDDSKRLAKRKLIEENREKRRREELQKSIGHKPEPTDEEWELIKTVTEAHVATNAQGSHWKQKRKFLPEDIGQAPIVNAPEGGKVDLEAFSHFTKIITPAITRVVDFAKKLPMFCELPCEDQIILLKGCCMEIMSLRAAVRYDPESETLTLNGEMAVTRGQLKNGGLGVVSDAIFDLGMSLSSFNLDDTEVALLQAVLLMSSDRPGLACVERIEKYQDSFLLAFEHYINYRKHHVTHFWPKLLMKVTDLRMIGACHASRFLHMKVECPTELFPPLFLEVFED
T1 sequence (P10828 102-461, stated change not applied, chain 1 of 2): as the sequence (P10828 102-461, stated change not applied, chain 2 of 2) above
T1 sequence (P19793 126-462, stated change not applied, chain 2 of 2): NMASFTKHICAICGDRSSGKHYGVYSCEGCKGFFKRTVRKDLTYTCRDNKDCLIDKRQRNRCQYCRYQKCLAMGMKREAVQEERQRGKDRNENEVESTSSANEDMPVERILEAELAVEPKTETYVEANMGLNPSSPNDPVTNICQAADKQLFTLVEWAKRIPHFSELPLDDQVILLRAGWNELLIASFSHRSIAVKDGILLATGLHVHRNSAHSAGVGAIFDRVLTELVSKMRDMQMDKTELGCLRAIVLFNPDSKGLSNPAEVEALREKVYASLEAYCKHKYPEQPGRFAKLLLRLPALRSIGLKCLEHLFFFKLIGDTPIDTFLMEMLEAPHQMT

Binder	Kd [1] [nM]	further results
B1	38.6 ± 7.9	–
B2	–	Kd [2]: 39.4 ± 2.2 nM
B3	140 ± 29.8	–
B4	–	Kd [3]: 720 ± 19 nM
